Data on 5 molecules can be found in patent publication US20260152565A1 (Dana-Farber, published 2026).

The target of experiment [1] is T1, BCMA on cells, species not stated (Homo sapiens (Human), UniProt Q02223 1-184).
T1 construct: also called BCMA cells; 3T3 BCMA cells
T1 sequence: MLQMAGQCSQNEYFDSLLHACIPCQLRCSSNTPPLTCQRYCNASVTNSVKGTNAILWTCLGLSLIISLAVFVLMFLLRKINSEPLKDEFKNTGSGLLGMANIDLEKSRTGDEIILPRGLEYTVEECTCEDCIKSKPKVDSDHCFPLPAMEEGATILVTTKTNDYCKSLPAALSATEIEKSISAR
Briefly: blocking of BAFF binding to BCMA cells.

Experiment [2] concerns the target T2, hBCMA-his-biotin (Acro, BCA-H82E4) (human, UniProt Q02223 1-54, biotin (as printed: hBCMA-his-biotin; site not stated)).
T2 construct: Bought reagent; not shown: His tag
T2 sequence (looked up): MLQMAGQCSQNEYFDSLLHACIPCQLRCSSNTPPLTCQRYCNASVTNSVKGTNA
Briefly: biosensor kinetics, SA sensor loaded with hBCMA-his-biotin, antibody in solution. The procedure:
(§1) The sensor was streptavidin (SA), loaded with hBCMA-his-biotin from Acro catalog number BCA-H82E4, and 50 nM antibody with a 1:2 dilution factor. Association times in FIG. 5A-FIG. 5C were each 600 s and dissociation times were each 900 s.

Experiment [3] concerns the target T1, BCMA on cells, species not stated. Briefly: cell binding, MFI against antibody concentration, panel title Bind to NCI-H929 cell.
In experiment [4] the target is T2, hBCMA-his-biotin (Acro, BCA-H82E4). The experiment is described as follows: biosensor kinetics, SA sensor loaded with hBCMA-his-biotin, antibody in solution. The procedure:
as §1
This is another data set of the same source.

Experiment [5] deals with T3, cynomolgus monkey BCMA expressed on HEK 293T cells (cynomolgus monkey, UniProt A0A2K5UD97 1-183).
T3 construct: also called HEK 293T-cyno BCMA cells; cyno BCMA
T3 sequence (A0A2K5UD97 entry or part of it limits assumed): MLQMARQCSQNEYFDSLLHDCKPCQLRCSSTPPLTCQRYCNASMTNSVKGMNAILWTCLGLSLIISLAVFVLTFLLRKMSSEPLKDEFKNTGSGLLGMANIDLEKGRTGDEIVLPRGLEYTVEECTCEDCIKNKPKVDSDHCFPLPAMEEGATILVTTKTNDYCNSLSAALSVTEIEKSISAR
The experiment is described as follows: cell binding, MFI against antibody concentration, panel title Bind to HEK293T - cyno BCMA.

For a further experiment, the target named is T4, EGFR (human, UniProt P00533 25-1210).
T4 construct: whole, on cells; also called control receptor
The experiment is described as follows: cell microarray, confirmation screen, control receptor; cell left blank in Table 13.

For experiment [6], the target named is T5, human BCMA (TNFRSF17) expressed on cells (human, UniProt Q02223 1-184).
T5 construct: whole, on cells; also called HEK 293T-hu BCMA cells; human BCMA cell lines
T5 sequence (looked up): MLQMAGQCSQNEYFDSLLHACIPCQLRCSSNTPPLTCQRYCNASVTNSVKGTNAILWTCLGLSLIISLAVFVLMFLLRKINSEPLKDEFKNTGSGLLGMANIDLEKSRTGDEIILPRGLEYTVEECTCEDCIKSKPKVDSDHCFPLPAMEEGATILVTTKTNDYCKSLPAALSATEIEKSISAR
The experiment is described as follows: cell binding, MFI against antibody concentration, HEK 293T-hu BCMA cells (cell line from legend paragraph 17).

Read-outs that look alike come from different tables or passages of the source.

Method for EGFR: In order to screen the on-target specificity of one of the VH-only anti-BCMA-targeted CARs, the Retrogenix Cell Microarray Technology platform was employed, which is a high-throughput platform for screening binding interactions between a test molecule and about 6100 human surfaceome proteins.
This was performed on both fixed and live cells (FIGS. 11A-11D).

B1: PR000274 (clone CA8-J6M0) (antibody, V domains shown)
VH: QVQLVQSGAEVKKPGSSVKVSCKASGGTFSNYWMHWVRQAPGQGLEWMGATYRGHSDTYYNQKFKGRVTITADKSTSTAYMELSSLRSEDTAVYYCARGAIYDGYDVLDNWGQGTLVTVSS
VL: DIQMTQSPSSLSASVGDRVTITCSASQDISNYLNWYQQKPGKAPKLLIYYTSNLHSGVPSRFSGSGSGTDFTLTISSLQPEDFATYYCQQYRKLPWTFGQGTKLEIKR
Turning to B1, the Span in experiment [1] came out at 1.86. In experiment [2], this molecule had a Kd of less than 0.001 nM, a koff of less than 1e-07 s⁻¹ and a kon of 195000 M⁻¹ s⁻¹. Further, in experiment [3], the “EC50 (read off the curve)” value is approximately 10 nM. Besides, in experiment [4], the Kd was less than 0.001 nM, the koff is less than 1e-07 s⁻¹ and the kon is 228000 M⁻¹ s⁻¹.

B2: PR000940 (antibody, V domains shown)
VH: EVQLLESGGGLVQPGGSLRLSCAASGFTFSSYAMIWVRQAPGKGLEWVSGISESGGSTYYADSVKGRFTISRDNSKNTLYLQMNSLRAEDTAVYFCVKDLDDILTGYYKDYWGQGTLVTVSS
notes: Heavy chain-only antibody from Harbour HCAb mice: dimer of two heavy chains, each with VH, CH2 and CH3; also called HCAb antibody PR000940; not shown: constant part (CH2 and CH3 regions of the Harbour HCAb format)
For the molecule B2, the binding result in experiment [5] was “no binding”. For the same molecule, the “EC50 (read off the curve)” value in experiment [3] is approximately 2 nM.

B3: PR001046 (antibody, V domains shown)
VH: EVQLVETGGGLIQPGGSLRLSCAASGFTVSDNYMTWVRQAPGKGLEWVSVIFSGGNTYYADSVKGRFTISRDNAKNTLYLQMNSLRAEDTALYYCARRNYDDTRGTDVFDIWGQGTMVTVSS
notes: also called HCAb antibody PR001046; PR001046 VH-only human IgG1 test antibody; not shown: constant part (CH2 and CH3)
On to B3, for which the Span in experiment [1] turned out to be 1.99. Besides, in the experiment with EGFR, the binding result is reported as “no binding (tested: 2.5 µg/mL)”. The “EC50 (read off the curve)” value in experiment [3] was approximately 2 nM; in experiment [6], approximately 0.02 µg/mL.

B4: PR000943 (antibody, V domains shown)
VH: EVQLVETGGGLIQPGGSLRLSCAASGFPVSSNYMSWVRQAPGKGLEWVSVIFSGGRTYYADSVKGRFTISRDNSKNTLYLQMNSLRAEDTAVYYCARRNWIDGRDAFDIWGQGTMVTVSS
notes: also called HCAb antibody PR000943; not shown: constant part (CH2 and CH3 regions of the Harbour HCAb format)
Consider B4, for which the Span in experiment [1] was determined as 2.19. Also, the “EC50 (read off the curve)” value in experiment [3] was approximately 4 nM; in experiment [6], approximately 0.01 µg/mL.

B5: PR001035 (antibody, V domains shown)
VH: EVQLVETGGGLIQPGGSLRLSCAASGFTVSSNYMTWVRQAPGKGLEWVSVIFSGGSTYYADSVKGRFTISRDNSKNTLYLQMNSLRAEDTAVYYCARRIAVAGHDVFDIWGQGTMVTVSS
notes: also called HCAb antibody PR001035; not shown: constant part (CH2 and CH3 regions of the Harbour HCAb format)
As for B5, the Span in experiment [1] was 1.92. Moreover, the “EC50 (read off the curve)” value in experiment [3] is approximately 1 nM; in experiment [6] it was approximately 0.02 µg/mL.

As usually defined, the Kd is the free concentration of one partner at which half of the binding sites on the other are occupied at equilibrium, for simple one-to-one binding. As a reminder, the koff is the rate constant with which the complex falls apart. What is called kon is the second-order rate constant of association. In general, EC50 (read off the curve) refers to the concentration needed to bring the measured effect to its halfway point.
